PMC5582858, “The yeast kinesin-5 Cin8 interacts with the microtubule in a noncanonical manner” (The Journal of Biological Chemistry, 2017)
Read-outs that look alike come from different tables or passages of the source. Values belong to the binder of their own block, whether it stands above or below them.

How the values were obtained:
[1] = substrate: Nc1ncnc2c1ncn2[C@@H]1O[C@H](COP(=O)(O)OP(=O)(O)OP(=O)(O)O)[C@@H](O)[C@H]1O; assay: NADH-coupled steady-state ATPase assay; format: biochemical, Saccharomyces cerevisiae; conditions: low ionic strength (21 mM), 20 mM HEPES pH 7.2, 2 mM MgCl2, 7.5 mM KCl, 20% glycerol, 298 K, 25.0 °C
Description: NADH-coupled steady-state ATPase assay on Cin8-His (Cin8 motor domain)

[2] = biological target: Paclitaxel-stabilized microtubules (bovine brain αβ-tubulin) (bovine) (UniProt Q6B856)
[3] = biological target: Paclitaxel-stabilized microtubules (bovine brain αβ-tubulin) (bovine) (UniProt Q6B856); assay: co-sedimentation; 0.5 μM Cin8-His, 0–2 μM microtubules, 1 mM ATP plus ATP regeneration system, low ionic strength (21 mM); fraction bound by NADH-coupled assay; apparent constants
[4] = biological target: Paclitaxel-stabilized microtubules (bovine brain αβ-tubulin) (bovine) (UniProt Q6B856); assay: co-sedimentation; 0.5 μM Cin8-His, 0–2 μM microtubules, 1 mM ATP plus ATP regeneration system, high ionic strength (88 mM); fraction bound by NADH-coupled assay; apparent constants
[5] = biological target: Paclitaxel-stabilized microtubules (bovine brain αβ-tubulin) (bovine) (UniProt Q6B856); assay: co-sedimentation; 0.5 μM Cin8-His, 0–2 μM microtubules, 1 mM ATP plus ATP regeneration system, low ionic strength (21 mM); fraction bound by NADH-coupled assay; apparent constants; remark: listed apart in the source
[6] = biological target: Paclitaxel-stabilized microtubules (bovine brain αβ-tubulin) (bovine) (UniProt Q6B856); assay: co-sedimentation; 0.5 μM Cin8-His, 0–2 μM microtubules, 1 mM ATP plus ATP regeneration system, high ionic strength (88 mM); fraction bound by NADH-coupled assay; apparent constants; remark: listed apart in the source
[7] = biological target: Paclitaxel-stabilized microtubules (bovine brain αβ-tubulin) (bovine) (UniProt Q6B856); assay: co-sedimentation; Cin8-His with microtubules, no added nucleotide, low ionic strength (21 mM), 298 K; Cin8 left in the supernatant measured by the NADH coupled ATPase assay; apparent constants
[8] = biological target: Paclitaxel-stabilized microtubules (bovine brain αβ-tubulin) (bovine) (UniProt Q6B856); assay: co-sedimentation; Cin8-His with microtubules, no added nucleotide, high ionic strength (88 mM), 298 K; Cin8 left in the supernatant measured by the NADH coupled ATPase assay; apparent constants
[9] = biological target: Pre-formed microtubule·Eg5 complex (bovine | human) (UniProt Q6B856); assay: stopped-flow light scattering; 0.5–5 μM Cin8-His rapidly mixed with a pre-formed microtubule·Eg5 complex (0.5 μM Eg5, 0.5 μM microtubules), low ionic strength, 298 K; amplitudes fit to Equation 6, observed rates to Equation 8
[10] = biological target: Pre-formed microtubule·Eg5 complex (bovine | human) (UniProt Q6B856); assay: as above; remark: listed apart in the source
[11] = biological target: Paclitaxel-stabilized microtubules (bovine brain αβ-tubulin) (bovine) (UniProt Q6B856); assay: co-sedimentation; 4 μM Cin8-trx, 1 μM microtubules, 20 μM paclitaxel; ATPase buffer, without glycerol, plus DTT, PIPES pH 6.9, sodium phosphate pH 7.2, 10 mM NaCl or 10 mM potassium acetate
[12] = biological target: Paclitaxel-stabilized microtubules (bovine brain αβ-tubulin) (bovine) (UniProt Q6B856); assay: co-sedimentation; competition: 0–14 μM Cin8-trx added to 2 μM Eg5 and 2 μM microtubules, 60 min at 298 K before centrifugation, low ionic strength; fraction Eg5 bound fit to Equation 5 with Kd,Eg5 fixed; apparent
[13] = biological target: Paclitaxel-stabilized microtubules (bovine brain αβ-tubulin) (bovine) (UniProt Q6B856); assay: co-sedimentation; competition: 0–14 μM Cin8-trx added to 2 μM Eg5 and 2 μM microtubules, 60 min at 298 K before centrifugation, high ionic strength; fraction Eg5 bound fit to Equation 5 with Kd,Eg5 fixed; apparent
[14] = biological target: Paclitaxel-stabilized microtubules (bovine brain αβ-tubulin) (bovine) (UniProt Q6B856); assay: co-sedimentation; 2 μM kinesin, 0–4 μM paclitaxel-stabilised microtubules, no added nucleotide, high ionic strength (88 mM; ATPase buffer with 75 mM KCl), 298 K, 100,000 × g 30 min; supernatant and pellet by SDS-PAGE; apparent constants, fit to Equation 3
[15] = biological target: Paclitaxel-stabilized microtubules (bovine brain αβ-tubulin) (bovine) (UniProt Q6B856); assay: co-sedimentation; 2 μM kinesin, 0–4 μM paclitaxel-stabilised microtubules, no added nucleotide, low ionic strength (21 mM; ATPase buffer with 7.5 mM KCl), 298 K, 100,000 × g 30 min; supernatant and pellet by SDS-PAGE; apparent constants, fit to Equation 3
[16] = biological target: Paclitaxel-stabilized microtubules (bovine brain αβ-tubulin) (bovine) (UniProt Q6B856); assay: co-sedimentation; 2 μM kinesin, 0–4 μM paclitaxel-stabilised microtubules, no added nucleotide, high ionic strength (88 mM; ATPase buffer with 75 mM KCl), 298 K, 100,000 × g 30 min; supernatant and pellet by SDS-PAGE; apparent constants, fit to Equation 3; remark: listed apart in the source
[17] = biological target: Paclitaxel-stabilized microtubules (bovine brain αβ-tubulin) (bovine) (UniProt Q6B856); assay: co-sedimentation; 2 μM kinesin, 0–4 μM paclitaxel-stabilised microtubules, no added nucleotide, low ionic strength (21 mM; ATPase buffer with 7.5 mM KCl), 298 K, 100,000 × g 30 min; supernatant and pellet by SDS-PAGE; apparent constants, fit to Equation 3; remark: listed apart in the source
[18] = microtubule-stimulated (2 μM bovine brain microtubules, paclitaxel-stabilized)

B1: Cin8-His (Cin8 motor domain) (Saccharomyces cerevisiae S288C) (protein)
chain: NEELNITVAVRCRGRNEREISMKSSVVVNVPDITGSKEISINTTGDTGITAQMNAKRYTVDKVFGPGASQDLIFDEVAGPLFQDFIKGYNCTVLVYGMTSTGKTYTMTGDEKLYNGELSDAAGIIPRVLLKLFDTLELQQNDYVVKCSFIELYNEELKDLLDSNSNGSSNTGFDGQFMKKLRIFDSSTANNTTSNSASSSRSNSRNSSPRSLNDLTPKAALLRKRLRTKSLPNTIKQQYQQQQAVNSRNNSSSNSGSTTNNASSNTNTNNGQRSSMAPNDQTNGIYIQNLQEFHITNAMEGLNLLQKGLKHRQVASTKMNDFSSRSHTIFTITLYKKHQDELFRISKMNLVDLAGSENINRSGALNQRAKEAGSINQSLLTLGRVINALVDKSGHIPFRESKLTRLLQDSLGGNTKTALIATISPAKVTSEETCSTLEYASKAKNIKNKPQLGSFIMKDILVKNIT
notes: motor domain residues 70-535; N-terminal His6 and TEV site tags kept; expressed in E. coli B834(DE3); monomeric in solution
Km [1, 18]: 29 ± 16 µM | kcat [1, 18]: 0.38 ± 0.04 s^−1 site^−1

K0.5,MT of the microtubule-stimulated steady-state ATPase (NADH coupled assay), 21 mM ionic strength [2]: 0.08 µM | K0.5,MT of the microtubule-stimulated steady-state ATPase (NADH coupled assay), 88 mM ionic strength [2]: 1.8 µM | Kd [3]: 140 nM | stoichiometry N [3]: 3.7 | Kd [4]: 960 nM | stoichiometry N [4]: 6.1 | Kd [5]: 110 nM | Kd [6]: 1600 nM | Kd [7]: 260 nM | stoichiometry N [7]: 3.1 | Kd [8]: 180 nM | stoichiometry N [8]: 3 | kon [9]: 1.1e+06 M⁻¹ s⁻¹ | K0.5 (Cin8 concentration at half-maximal light-scattering amplitude) [10]: 0.27 µM | koff [10]: 3.1 s⁻¹ | kon [10]: 1e+06 M⁻¹ s⁻¹
B2: Cin8-His (S. cerevisiae kinesin-5 Cin8 motor domain, residues 70–535, with N-terminal His6 and TEV cleavage tags) (domain or fragment)
chain: ISINTTGDTGITAQMNAKRYTVDKVFGPGASQDLIFDEVAGPLFQDFIKGYNCTVLVYGMTSTGKTYTMTGDEKLYNGELSDAAGIIPRVLLKLFDTLELQQNDYVVKCSFIELYNEELKDLLDSNSNGSSNTGFDGQFMKKLRIFDSSTANNTTSNSASSSRSNSRNSSPRSLNDLTPKAALLRKRLRTKSLPNTIKQQYQQQQAVNSRNNSSSNSGSTTNNASSNTNTNNGQRSSMAPNDQTNGIYIQNLQEFHITNAMEGLNLLQKGLKHRQVASTKMNDFSSRSHTIFTITLYKKHQDELFRISKMNLVDLAGSENINRSGALNQRAKEAGSINQSLLTLGRVINALVDKSGHIPFRESKLTRLLQDSLGGNTKTALIATISPAKVTSEETCSTLEYASKAKNIKNKPQLGSFIMKDILVKNITMELAKIKSDLLSTKSKEGIYMSQDHYKNLNSDLESYKN

stoichiometry N [11]: 4 | Kd [12]: 2 nM | Kd [13]: 590 nM | Kd [14]: 130 nM | stoichiometry N [14]: 4 | Kd [15]: 1 nM | stoichiometry N [15]: 5.1 | stoichiometry N [16]: 3 to 5 | Kd [17]: 13 nM
B3: Cin8-trx (Cin8 motor domain, residues 70–535, fused to N-terminal thioredoxin (TrxA), His6, TEV cleavage and Arg9 tags) (domain or fragment)
chain: B2 chain

B4: Cin8-His (Cin8 motor domain) (Saccharomyces cerevisiae S288C; DEL254-353/DEL32-69/INS253NNNNNSS) (protein)
chain: ISINTTGDTGITAQMNAKRYTVDKVFGPGASQDLIFDEVAGPLFQDFIKGYNCTVLVYGMTSTGKTYTMTGDEKLYNGELSDAAGIIPRVLLKLFDTLELQQNDYVVKCSFIELYNEELKDLLDSNSNGSSNTGFDGQFMKKLRIFDSSTANNTTSNSASSSRSNSRNSSPRSLNDLTPKAALLNNNNNSSSSRSHTIFTITLYKKHQDELFRISKMNLVDLAGSENINRSGALNQRAKEAGSINQSLLTLGRVINALVDKSGHIPFRESKLTRLLQDSLGGNTKTALIATISPAKVTSEETCSTLEYASKAKNIKNKPQLGSFIMKDILVKNITMELAKIKSDLLSTKSKEGIYMSQDHYKNLNSDLESYKN
notes: as for B1
Km ([1]; microtubule-stimulated): 45 ± 4 µM | kcat ([1]; microtubule-stimulated): 0.36 ± 0.22 s^−1 site^−1
